Reference: patent US20150203577A1 (Chugai, published 2015)
Substitutions are numbered along the chain they refer to.

B1: H237-MB850/MRAL-k0 (antibody, mouse IgG1, kappa)
heavy: QVQLQESGPGLVKPSETLSLTCAVSGHSISHDHAWSWVRQPPGEGLEWIGFISYSGITNYNPSLQGRVTISRDNSKNTLYLQMNSLRAEDTAVYYCARSLARTTAMDYWGEGTLVTVSSAKTTPPSVYPLAPGSAAQTNSMVTLGCLVKGYFPEPVTVTWNSGSLSSGVHTFPAVLQSDLYTLSSSVTVPSSTWPSETVTCNVAHPASSTKVDKKIVPRDCGCKPCICEPNEVELVFIFPPKPKDVLTITLTPKVTCVVVDISKDDPEVQFSWFVDDVEVHTAQTQPREEQFNSTFRSVSELPIMHQDWLNGKEFKCRVNSDGFPAPIYKTISKTKGRPKAPQVYTIPPPKEQMAKDKVSLTCMITDFFPEDITVEWQWNGQPAENYKNTQPIMDTDGSYFVYSKLNVQKSNWEAGNTFTCSVLHEGLHNHHTEKSLSHSPGK
light: not shown
notes: copies: 2 + 2
B2: H237-MB851/MRAL-k0 (antibody, mouse IgG1, kappa)
heavy: B1 heavy with Y329E, K330R
light: not shown
notes: copies: 2 + 2
B3: H237-MB852/MRAL-k0 (antibody, mouse IgG1, kappa)
heavy: B1 heavy with Q291L, N320D, Y329E
light: not shown
notes: copies: 2 + 2
B4: H237-MB854/MRAL-k0 (antibody, mouse IgG1, kappa)
heavy: B1 heavy with Q291L
light: not shown
notes: copies: 2 + 2
B5: H237-MB856/MRAL-k0 (antibody, mouse IgG1, kappa)
heavy: B1 heavy with N320D, P327Y, Y329E
light: not shown
notes: copies: 2 + 2
B6: H237-MB857/MRAL-k0 (antibody, mouse IgG1, kappa)
heavy: B1 heavy with N320D
light: not shown
notes: copies: 2 + 2
B7: H237-MB858/MRAL-k0 (antibody, mouse IgG1, kappa)
heavy: B1 heavy with N320D, Y329E, K330R
light: not shown
notes: copies: 2 + 2
B8: H237-MB859/MRAL-k0 (antibody, mouse IgG1, kappa)
heavy: B1 heavy with P327Y, Y329E, K330R
light: not shown
notes: copies: 2 + 2
B9: H237-MB860/MRAL-k0 (antibody, mouse IgG1, kappa)
heavy: B1 heavy with K330R
light: not shown
notes: copies: 2 + 2
B10: H237-MB862/MRAL-k0 (antibody, mouse IgG1, kappa)
heavy: B1 heavy with K264D, P327Y, Y329E
light: not shown
notes: copies: 2 + 2
B11: H237-MB863/MRAL-k0 (antibody, mouse IgG1, kappa)
heavy: B1 heavy with K264D
light: not shown
notes: copies: 2 + 2
B12: H237-MB866/MRAL-k0 (antibody, mouse IgG1, kappa)
heavy: B1 heavy with L235I, Y329E
light: not shown
notes: copies: 2 + 2
B13: H237-MB867/MRAL-k0 (antibody, mouse IgG1, kappa)
heavy: B1 heavy with L235I, K264D, Y329E
light: not shown
notes: copies: 2 + 2

Molecular target: T1, mouse FcγRII extracellular domain, C-terminal His tag (mouse, UniProt P08101 30-210)
T1 construct: also called mFcγRII; mFcgRII
T1 sequence: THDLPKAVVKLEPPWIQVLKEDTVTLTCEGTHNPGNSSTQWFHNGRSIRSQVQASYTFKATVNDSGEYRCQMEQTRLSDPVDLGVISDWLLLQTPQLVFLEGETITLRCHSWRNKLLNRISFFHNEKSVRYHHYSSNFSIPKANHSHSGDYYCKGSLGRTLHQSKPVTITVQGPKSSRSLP
Assay: SPR (Biacore T200), antibody captured on Protein L, mFcγR analyte

B1 and B2 are within 1.5-fold of each other in Kd: 4.81 nM for the first, 4.79 nM for the second.

B3 and B4 are within 1.5-fold of each other in Kd: 3.44 nM for the first, 4.15 nM for the second.

B5 and B6 are within 1.5-fold of each other in Kd: 4.69 nM for the first, 4.71 nM for the second.

Going from B7 to B8, the Kd rises from 3.39 nM to 6.15 nM (1.8-fold).

Compared with B9, B10 is 1.7-fold lower in Kd: 5.3 nM for the first, 3.09 nM for the second.

Compared with B11, B12 is 6.3-fold higher in Kd: 2.58 nM for the first, 16.2 nM for the second.

B13 showed a Kd of 5.96 nM.

Going from B1 to B2, the “relative mFcγRII-binding activity (mIgG1 = 1)” value rises from 43.7 fold vs H237-mIgG1/MRAL-k0 to 43.8 fold vs H237-mIgG1/MRAL-k0.

Compared with B3, B4 is lower in “relative mFcγRII-binding activity (mIgG1 = 1)” value: 61 fold vs H237-mIgG1/MRAL-k0 for the first, 50.6 fold vs H237-mIgG1/MRAL-k0 for the second.

Going from B5 to B6, the “relative mFcγRII-binding activity (mIgG1 = 1)” value falls from 44.8 fold vs H237-mIgG1/MRAL-k0 to 44.6 fold vs H237-mIgG1/MRAL-k0.

Going from B7 to B8, the “relative mFcγRII-binding activity (mIgG1 = 1)” value falls from 62 fold vs H237-mIgG1/MRAL-k0 to 34.2 fold vs H237-mIgG1/MRAL-k0.

Compared with B9, B10 is higher in “relative mFcγRII-binding activity (mIgG1 = 1)” value: 39.6 fold vs H237-mIgG1/MRAL-k0 for the first, 67.9 fold vs H237-mIgG1/MRAL-k0 for the second.

Compared with B11, B12 is lower in “relative mFcγRII-binding activity (mIgG1 = 1)” value: 81.3 fold vs H237-mIgG1/MRAL-k0 for the first, 13 fold vs H237-mIgG1/MRAL-k0 for the second.

For B13, the “relative mFcγRII-binding activity (mIgG1 = 1)” value was 35.2 fold vs H237-mIgG1/MRAL-k0.

Molecular target: T2, mouse FcγRIII extracellular domain, C-terminal His tag (mouse, UniProt P08508 31-215)
T2 construct: also called mFcγRIII; mFcgRIII
T2 chain: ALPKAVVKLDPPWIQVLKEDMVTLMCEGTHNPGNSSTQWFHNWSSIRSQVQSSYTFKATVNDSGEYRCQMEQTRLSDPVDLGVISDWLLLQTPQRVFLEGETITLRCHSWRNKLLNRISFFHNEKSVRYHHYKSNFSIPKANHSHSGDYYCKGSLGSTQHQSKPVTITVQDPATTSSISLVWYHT
Assay: as above

B1 and B2 are within 1.5-fold of each other in Kd: 358 nM for the first, 295 nM for the second.

B3 and B4 are within 1.5-fold of each other in Kd: 154 nM for the first, 225 nM for the second.

B5 and B6 are within 1.5-fold of each other in Kd: 311 nM for the first, 313 nM for the second.

Going from B7 to B8, the Kd rises from 223 nM to 396 nM (1.8-fold). The first binds more tightly here.

Compared with B9, B10 is 2.7-fold lower in Kd: 379 nM for the first, 142 nM for the second.

Going from B11 to B12, the Kd rises from 121 nM to 1570 nM (13-fold).

B13 showed a Kd of 331 nM.

Going from B1 to B2, the “relative mFcγRIII-binding activity (mIgG1 = 1)” value rises from 0.8 fold vs H237-mIgG1/MRAL-k0 to 1 fold vs H237-mIgG1/MRAL-k0.

Going from B3 to B4, the “relative mFcγRIII-binding activity (mIgG1 = 1)” value falls from 1.8 fold vs H237-mIgG1/MRAL-k0 to 1.3 fold vs H237-mIgG1/MRAL-k0.

B5 and B6 are the same in “relative mFcγRIII-binding activity (mIgG1 = 1)” value: 0.9 fold vs H237-mIgG1/MRAL-k0 for the first, 0.9 fold vs H237-mIgG1/MRAL-k0 for the second.

Compared with B7, B8 is lower in “relative mFcγRIII-binding activity (mIgG1 = 1)” value: 1.3 fold vs H237-mIgG1/MRAL-k0 for the first, 0.7 fold vs H237-mIgG1/MRAL-k0 for the second.

Compared with B9, B10 is higher in “relative mFcγRIII-binding activity (mIgG1 = 1)” value: 0.7 fold vs H237-mIgG1/MRAL-k0 for the first, 2 fold vs H237-mIgG1/MRAL-k0 for the second.

Compared with B11, B12 is lower in “relative mFcγRIII-binding activity (mIgG1 = 1)” value: 2.3 fold vs H237-mIgG1/MRAL-k0 for the first, 0.2 fold vs H237-mIgG1/MRAL-k0 for the second.

In the case of B13, the “relative mFcγRIII-binding activity (mIgG1 = 1)” value is reported as 0.9 fold vs H237-mIgG1/MRAL-k0.
